Patent US20080286228A1 (published 2008)
Non-standard residues stand in square brackets, D forms with d. No end group written: not given here.

B1: IPQSLDSWWTSLYSFKPMPLaR (peptide)
peptide: IPQSLDSWWTSLYSFKPMPL[dA]R
notes: synthetic peptide
B2: natural C5a (ligand, UniProt P01031 678-751, looked up)
chain: TLQKKIEEIAAKYKHSVVKKCCYDGACVNNDETCEQRAARISLGPRCIKAFTECCVVASQLRANISHKDMQLGR
notes: C5a is a fragment of it
B3: IPQSLDSWWTSLRRYSFKPMPLaR (peptide)
peptide: IPQSLDSWWTSLRRYSFKPMPL[dA]R
notes: synthetic peptide; also called double-Arg-linked C5a-active construct
B4: IPQSLDSWWTSLRRYSFKPMPLaRG (peptide)
peptide: IPQSLDSWWTSLRRYSFKPMPL[dA]RG
notes: synthetic peptide
B5: C5a C-terminal decapeptide agonist analog YSFKPMPLaR (peptide)
peptide: YSFKPMPL[dA]R
notes: synthetic peptide; also called C5a agonist
B6: IPQSLDSWWTSLRVRRYSFKPMPLaR (peptide)
peptide: IPQSLDSWWTSLRVRRYSFKPMPL[dA]R
notes: synthetic peptide; also called RVRR-containing C5a-active construct
B7: YSFKPMPLa[…] (peptide)
peptide: YSFKPMPL[dA]RRRIPQSLDSWWTSL
notes: synthetic peptide

Key:
[1] = biological target: T1, C5a receptor expressed on the surface of human PMNs (human, UniProt P21730 1-350); experiment: cell-based or functional assay
T1 sequence (looked up): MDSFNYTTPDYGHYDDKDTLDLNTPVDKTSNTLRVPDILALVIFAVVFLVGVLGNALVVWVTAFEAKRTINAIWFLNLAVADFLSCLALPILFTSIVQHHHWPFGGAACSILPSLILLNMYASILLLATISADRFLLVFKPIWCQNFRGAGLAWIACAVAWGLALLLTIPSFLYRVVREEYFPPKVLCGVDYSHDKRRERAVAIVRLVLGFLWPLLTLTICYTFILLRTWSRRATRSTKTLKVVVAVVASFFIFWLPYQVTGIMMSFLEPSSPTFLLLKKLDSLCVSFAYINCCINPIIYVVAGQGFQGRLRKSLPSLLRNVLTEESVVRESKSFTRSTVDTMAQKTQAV

[2] = biological target: T1, C5a receptor expressed on the surface …; experiment: competition with 125I-C5a on intact human PMNs
Procedure: Statistical analysis of the values obtained from pharmacologic assays was performed using one-way analysis of variance (ANOVA).

[3] = biological target: T1, C5a receptor expressed on the surface …; experiment: cell-based or functional assay; remark: listed apart in the source

Binder | smooth muscle contraction of human umbilical artery, EC50 [1] | smooth muscle contraction of human umbilical artery, pD2 [1] | IC50 [2] | pD2 (-log IC50 (M)) [2] | MPO release from human PMNs, EC50 [3] | MPO release from human PMNs, pD2 [3]
B1 | 0.21 µM | 6.68 -log EC50 (M) | 3.69 µM | 5.43 -log IC50 (M) | 1.58 µM | 5.8 -log EC50 (M)
B2 | 0.002 µM | 8.77 -log EC50 (M) | 0.0004 µM | 9.43 -log IC50 (M) | 0.003 µM | 8.5 -log EC50 (M)
B3 | 0.161 µM | 6.79 -log EC50 (M) | 0.416 µM | 6.38 -log IC50 (M) | 0.54 µM | 6.27 -log EC50 (M)
B4 | 6.78 µM | 5.17 -log EC50 (M) | 17 µM | 4.77 -log IC50 (M) | 2.56 µM | 5.59 -log EC50 (M)
B5 | 0.01 µM | 6.99 -log EC50 (M) | – | 5.63 -log IC50 (M) | – | –
B6 | 0.18 µM | 6.67 -log EC50 (M) | 0.529 µM | 6.28 -log IC50 (M) | 2.15 µM | 5.61 -log EC50 (M)
B7 | 39.4 µM | 4.41 -log EC50 (M) | 465 µM | 3.33 -log IC50 (M) | > 1000 µM | > 3 -log EC50 (M)
